These results are taken from paper PMC6477676, “Staufen2-mediated RNA recognition and localization requires combinatorial action of multiple domains”.

The target in data set [1] is T1, mStau2 dsRBD2 (Mus musculus, UniProt Q8CJ67 95-181).
T1 sequence: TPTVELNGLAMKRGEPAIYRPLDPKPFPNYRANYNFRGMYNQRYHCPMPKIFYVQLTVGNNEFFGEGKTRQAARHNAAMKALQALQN
As to the kind of experiment: SPR; Hill n 1.1; text says 829 nM; SPR: HBS-EP (10 mM HEPES pH 7.4, 150 mM NaCl, 3 mM EDTA, 0.005% P20); EMSA: 5 nM RNA, protein buffer (40 mM Bis-Tris pH 7, 150 mM NaCl, 2 mM DTT presumed), 4% glycerol, 30 ug/mL yeast tRNA, RT; NMR: 150 mM NaCl, 20 mM Na phosphate pH 7.0, 5 mM DTT, 298 K. The conditions noted are these: protein: recombinant; label: 5' 32P (EMSA); biotin (SPR); imperfect hairpin, 26 bp with two bulges. On the technique in general: Surface plasmon resonance follows binding to a sensor surface in real time, without labels.

Data set [2] has as its target T2, mStau2 dsRBD1-4 (Mus musculus, UniProt Q8CJ67 8-375).
T2 sequence: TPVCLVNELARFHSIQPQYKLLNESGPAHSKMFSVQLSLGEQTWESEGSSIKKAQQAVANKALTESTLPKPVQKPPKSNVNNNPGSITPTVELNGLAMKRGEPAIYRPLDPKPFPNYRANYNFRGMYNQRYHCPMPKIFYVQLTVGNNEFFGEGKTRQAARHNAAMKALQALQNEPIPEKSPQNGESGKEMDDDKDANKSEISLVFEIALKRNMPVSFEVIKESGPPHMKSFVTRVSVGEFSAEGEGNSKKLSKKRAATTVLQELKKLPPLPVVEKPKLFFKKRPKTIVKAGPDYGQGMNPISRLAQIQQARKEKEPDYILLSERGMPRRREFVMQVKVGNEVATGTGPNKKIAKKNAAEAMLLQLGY
As to the kind of experiment: SPR; Hill n 1.7; text says 330 nM; SPR: HBS-EP (10 mM HEPES pH 7.4, 150 mM NaCl, 3 mM EDTA, 0.005% P20); EMSA: 5 nM RNA, protein buffer (40 mM Bis-Tris pH 7, 150 mM NaCl, 2 mM DTT presumed), 4% glycerol, 30 ug/mL yeast tRNA, RT; NMR: 150 mM NaCl, 20 mM Na phosphate pH 7.0, 5 mM DTT, 298 K. Conditions: protein: recombinant; tags: HisSUMO removed; label: 5' 32P (EMSA); biotin (SPR); imperfect hairpin, 26 bp with two bulges.

For data set [3], the target named is T3, mStau2 dsRBD1 (Mus musculus, UniProt Q8CJ67 8-75).
T3 sequence: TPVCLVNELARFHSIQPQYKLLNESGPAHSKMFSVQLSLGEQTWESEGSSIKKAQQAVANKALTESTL
As to the kind of experiment: SPR; up to 1 uM; SPR: HBS-EP (10 mM HEPES pH 7.4, 150 mM NaCl, 3 mM EDTA, 0.005% P20); EMSA: 5 nM RNA, protein buffer (40 mM Bis-Tris pH 7, 150 mM NaCl, 2 mM DTT presumed), 4% glycerol, 30 ug/mL yeast tRNA, RT; NMR: 150 mM NaCl, 20 mM Na phosphate pH 7.0, 5 mM DTT, 298 K. The conditions noted are these: protein: recombinant; label: 5' 32P (EMSA); biotin (SPR); imperfect hairpin, 26 bp with two bulges.

For data set [4], the target named is T2, mStau2 dsRBD1-4. As to the kind of experiment: SPR; Hill n 1.6; text says 357 nM; SPR: HBS-EP (10 mM HEPES pH 7.4, 150 mM NaCl, 3 mM EDTA, 0.005% P20); EMSA: 5 nM RNA, protein buffer (40 mM Bis-Tris pH 7, 150 mM NaCl, 2 mM DTT presumed), 4% glycerol, 30 ug/mL yeast tRNA, RT; NMR: 150 mM NaCl, 20 mM Na phosphate pH 7.0, 5 mM DTT, 298 K. Conditions: protein: recombinant; tags: HisSUMO removed; label: 5' 32P (EMSA); biotin (SPR); hairpin, 18 bp stem.

The target in data set [5] is T4, mStau2 dsRBD1-2 F157A (Mus musculus, UniProt Q8CJ67 8-181, F157A).
T4 sequence: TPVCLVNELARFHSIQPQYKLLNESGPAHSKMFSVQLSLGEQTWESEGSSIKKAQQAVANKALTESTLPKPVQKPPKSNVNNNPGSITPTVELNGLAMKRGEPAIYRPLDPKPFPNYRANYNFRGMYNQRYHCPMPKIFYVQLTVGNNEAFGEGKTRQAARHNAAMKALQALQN
As to the kind of experiment: SPR; Hill n 1.5; stable kinetics; SPR: HBS-EP (10 mM HEPES pH 7.4, 150 mM NaCl, 3 mM EDTA, 0.005% P20); EMSA: 5 nM RNA, protein buffer (40 mM Bis-Tris pH 7, 150 mM NaCl, 2 mM DTT presumed), 4% glycerol, 30 ug/mL yeast tRNA, RT; NMR: 150 mM NaCl, 20 mM Na phosphate pH 7.0, 5 mM DTT, 298 K. Conditions: protein: recombinant; label: 5' 32P (EMSA); biotin (SPR); hairpin, 18 bp stem.

In data set [6] the target is T5, mStau2 dsRBD1-2 K59A (Mus musculus, UniProt Q8CJ67 8-181, K59A).
T5 sequence: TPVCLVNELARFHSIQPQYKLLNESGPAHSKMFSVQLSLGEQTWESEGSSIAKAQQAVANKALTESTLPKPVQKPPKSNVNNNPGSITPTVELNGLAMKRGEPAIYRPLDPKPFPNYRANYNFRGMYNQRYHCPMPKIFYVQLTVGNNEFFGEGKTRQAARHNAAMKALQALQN
As to the kind of experiment: SPR; Hill n 1.2; SPR: HBS-EP (10 mM HEPES pH 7.4, 150 mM NaCl, 3 mM EDTA, 0.005% P20); EMSA: 5 nM RNA, protein buffer (40 mM Bis-Tris pH 7, 150 mM NaCl, 2 mM DTT presumed), 4% glycerol, 30 ug/mL yeast tRNA, RT; NMR: 150 mM NaCl, 20 mM Na phosphate pH 7.0, 5 mM DTT, 298 K. Conditions: protein: recombinant; label: 5' 32P (EMSA); biotin (SPR); hairpin, 18 bp stem.

Data set [7] addresses T1, mStau2 dsRBD2. As to the kind of experiment: SPR; Hill n 1.3; SPR: HBS-EP (10 mM HEPES pH 7.4, 150 mM NaCl, 3 mM EDTA, 0.005% P20); EMSA: 5 nM RNA, protein buffer (40 mM Bis-Tris pH 7, 150 mM NaCl, 2 mM DTT presumed), 4% glycerol, 30 ug/mL yeast tRNA, RT; NMR: 150 mM NaCl, 20 mM Na phosphate pH 7.0, 5 mM DTT, 298 K. The conditions noted are these: protein: recombinant; label: 5' 32P (EMSA); biotin (SPR); hairpin, 18 bp stem.

The Kd is the concentration at which binding is half-saturated.

B1: SRS* (SRS3) (structured_RNA)
RNA: GGUAUGUGUGAAUGUGCAUGAAUAUAUAUAUAUAUGCAUAUAUAUAUUUGUAUAUGUUCACACAUG
As to B1, the figures for the Kd in data set [1] and in data set [2] were 828 ± 29 nM and 287 ± 127 nM, respectively. In addition, the binding result in data set [3] is on record as “no binding”.
With GGUAUAUACAUGCACAUGCAAUUUGUGUAUGUGUAUGUAUAUA (structured_RNA) [SRS2+5], the Kd in data set [4] amounted to 330 ± 148 nM; in data set [5] it was 497 ± 238 nM; in data set [6], 509 ± 136 nM; in data set [7], 650 ± 247 nM.
